The values that follow come from publication PMC11809610.

Test [1] addresses CD95 (full-length protein, amino acids 1 to 335) fused C-terminally to mEGFP or mCherry (human (from the printed accession)) (UniProt P25445).
Test [2] has as its target T1, CD95 (full-length protein, amino acids 1 to 335) fused C-terminally to mEGFP or mCherry (human (from the printed accession)), P25445.
T1 chain: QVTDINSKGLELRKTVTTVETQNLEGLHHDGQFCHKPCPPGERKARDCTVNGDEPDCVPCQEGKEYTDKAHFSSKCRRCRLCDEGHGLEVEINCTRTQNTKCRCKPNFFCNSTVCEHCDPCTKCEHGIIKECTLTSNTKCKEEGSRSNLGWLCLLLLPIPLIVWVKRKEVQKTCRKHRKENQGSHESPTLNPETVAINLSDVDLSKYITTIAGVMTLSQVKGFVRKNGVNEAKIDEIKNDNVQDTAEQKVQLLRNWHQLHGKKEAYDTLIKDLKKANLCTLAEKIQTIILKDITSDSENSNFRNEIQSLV
Put plainly: FRET or BRET; CELFIS (FRET-FLIM, donor lifetime, x_FRET for each cell) in live HeLa CD95^KO cells with bicistronic mCherry/mEGFP plasmids; no ligand; evaluated from 30 up to 1000 receptors/μm^2; 37°C. As to conditions: remark: other sources report otherwise. (Bioluminescence resonance energy transfer reports proximity on the nanometre scale.)

The target in test [3] is T1, CD95 (full-length protein, amino acids …). Put plainly: FRET or BRET; CELFIS (FRET-FLIM) in live HeLa CD95^KO cells with bicistronic mCherry/mEGFP plasmids; after addition of CD95L (200 ng/ml with enhancer); repeated measurements up to 6 hours; 37°C. As to conditions: remark: other sources report otherwise.

Take “FasL, soluble (human) (recombinant) (from UniProt P48023 130-281) (ligand)”: in test [1], the percentage of apoptotic cells (time-lapse microscopy, HeLa cells expressing CD95-mEGFP), CD95L 2 to 200 ng/ml (% apoptotic cells) stood at 99.

B1: CD95 (full-length protein, amino acids 1 to 335) fused C-terminally to mEGFP or mCherry, P25445 26-335 (receptor)
chain: QVTDINSKGLELRKTVTTVETQNLEGLHHDGQFCHKPCPPGERKARDCTVNGDEPDCVPCQEGKEYTDKAHFSSKCRRCRLCDEGHGLEVEINCTRTQNTKCRCKPNFFCNSTVCEHCDPCTKCEHGIIKECTLTSNTKCKEEGSRSNLGWLCLLLLPIPLIVWVKRKEVQKTCRKHRKENQGSHESPTLNPETVAINLSDVDLSKYITTIAGVMTLSQVKGFVRKNGVNEAKIDEIKNDNVQDTAEQKVQLLRNWHQLHGKKEAYDTLIKDLKKANLCTLAEKIQTIILKDITSDSENSNFRNEIQSLV
In test [2], B1 displayed a dimer fraction of under 4% and a monomer fraction of 96%. Moreover, in test [3], the oligomer fraction with CD95L was under 21%; the oligomer fraction with CD95L, cells that did not show apoptosis, after 4 hours is 12%; the oligomer fraction with CD95L, cells that underwent apoptosis was determined as 18%; the oligomer fraction with CD95L, just before apoptosis was determined as 15%. In test [3], the oligomerization rate with CD95L, cells that died (% oligomers/hour) is 6; the oligomerization rate with CD95L, cells that stayed alive (% oligomers/hour) was 2.3; the x FRET with CD95L amounted to 12%.
